Assay results as given in the supplement of paper PMC10899765.

Columns and labels:
Settings in all cases: 20 nM; 72 h
MCF10A [1] = assay: one-nucleolus phenotype percent effect (relative to siNT 0% and siNOL11 100%); higher = more cells with one nucleolus (ribosome biogenesis inhibition)
Experimental: (§1)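 After 72 h, cells were fixed and stained with Hoechst and anti-fibrillarin, and nucleoli per nucleus were counted with CellProfiler. Values are plate-adjusted percent effect for the one-nucleolus and 5+ nucleoli phenotypes, normalised to siNT (0%) and to the positive controls siNOL11 or siKIF11 (100%), as the mean of biological triplicates. Percent viability is the nuclei count relative to siNT.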

MCF10A [2] = assay: 5+ nucleoli phenotype percent effect (relative to siNT 0% and siKIF11 100%); higher = more cells with five or more nucleoli
Experimental: as §1

MCF10A [3] = assay: percent viability (nuclei count relative to siNT); higher = more viable cells
Experimental: as §1

Row | Sequence | one-nucleolus phenotype percent effect (MCF10A [1]) [%] | 5+ nucleoli phenotype percent effect (MCF10A [2]) [%] | percent viability (MCF10A [3]) [%]
1 | AAAUAUGAUGAAACUCACAGCUGAG [hsa-miR-4517] | 0.779 | 12.3 | 24
2 | AAAAGUAAUUGCGGGUUUUGCC [hsa-miR-548as-5p] | -24.9 | 35.9 | 160
3 | AAUAGGCCACGGAUCUGGGCAA [hsa-miR-1295b-3p] | 28.6 | 4.51 | 13.8
4 | GAUUUCAGUGGAGUGAAGUUC [hsa-miR-205-3p] | -30.2 | 51.7 | 133
5 | UGAGUGGGGCUCCCGGGACGGCG [hsa-miR-4745-5p] | -8.18 | 25 | 57.7
6 | CACAUUACACGGUCGACCUCU [hsa-miR-323a-3p] | 12.4 | -33.7 | 49.9
7 | CUUCUCUUCUCUCCUUCCCAG [hsa-miR-6809-3p] | 17.9 | -23.7 | 31
8 | AGCGGUGCUCCUGCGGGCCGA [hsa-miR-4746-3p] | 35.6 | -33 | 34.7
9 | CCCUCUCUGGCUCCUCCCCAAA [hsa-miR-4723-3p] | -23.7 | 50.7 | 114
10 | AAGGGGCAGGGACGGGUGGCCC [hsa-miR-6743-5p] | 1.94 | 0.112 | 29.4
11 | AUAAUACAACCUGCUAAGUGCU [hsa-miR-374c-5p] | 26.4 | -36.9 | 45.3
12 | CCCAGGGCUUGGAGUGGGGCAAGGUU [hsa-miR-4685-5p] | 9.96 | 15 | 69.2
13 | CACCCGGCUGUGUGCACAUGUGC [hsa-miR-941] | -3.88 | -23.6 | 56.3
14 | UUGGGCCCAGGAGUAAACAGGAU [hsa-miR-6773-5p] | -0.04 | -4.65 | 40.3
15 | UUCAGCCAGGCUAGUGCAGUCU [hsa-miR-3157-5p] | 7.66 | -4.24 | 20.1
16 | UCCAGGCAGGAGCCGGACUGGA [hsa-miR-4673] | -17.9 | 14.9 | 62.5
17 | AAUCGUACAGGGUCAUCCACUU [hsa-miR-487b] | -10.7 | 24.3 | 59.9
18 | UUAGUGCAUAGUCUUUGGUCU [hsa-miR-4671-3p] | -12 | 47.6 | 85.2
19 | UGCCUAGGCUGAGACUGCAGUG [hsa-miR-3135a] | 2.6 | 1.84 | 25.7
20 | AGGUUGUCCGUGUUGUCUUCUCU [hsa-miR-494-5p] | 3.91 | 18.5 | 22.3

Row | Sequence | one-nucleolus phenotype percent effect (MCF10A [1]) [%] | 5+ nucleoli phenotype percent effect (MCF10A [2]) [%] | percent viability (MCF10A [3]) [%]
21 | GAUCCCUUUAUCUGUCCUCUAG [hsa-miR-6866-3p] | -33.5 | 77.6 | 112
22 | GGUUCUUAGCAUAGGAGGUCU [hsa-miR-2116-5p] | 12.8 | -5.52 | 35.2
23 | AACAUAGAGGAAAUUCCACGU [hsa-miR-376c-3p] | -18.9 | 55.4 | 99.8
24 | GCGGGGGUGGCGGCGGCAUCCC [hsa-miR-4787-5p] | -21.5 | 25.2 | 86.7
25 | UUCUCAAGGAGGUGUCGUUUAU [hsa-miR-513c-5p] | 19.8 | 3.99 | 30
26 | GCAGGACAGGCAGAAGUGGAU [hsa-miR-4436a] | -24.9 | 32.1 | 105
27 | UUGGGCUGGGCUGGGUUGGG [hsa-miR-1587] | 29.2 | -22.5 | 19.9
28 | AGGAGGGAGGAGAUGGGCCAAGUU [hsa-miR-1249-5p] | 45.9 | -22.4 | 11.3
29 | UAGGACACAUGGUCUACUUCU [hsa-miR-1197] | 7.44 | -9.77 | 61.7
30 | AAGCCCUUACCCCAAAAAGCAU [hsa-miR-129-2-3p] | 24 | -31.7 | 64.7
31 | AAGGGCUUCCUCUCUGCAGGAC [hsa-miR-3158-3p] | 32.8 | -9.95 | 12.1
32 | UGAGGAGAUGCUGGGACUGA [hsa-miR-4784] | -9 | 22.8 | 56.7
33 | CUGGGCCCGCGGCGGGCGUGGGG [hsa-miR-6724-5p] | -9.05 | 19.6 | 74.9
34 | UUCAUUUGCCUCCCAGCCUACA [hsa-miR-664b-3p] | 39.1 | -29.2 | 28.7
35 | UGUGGGAUCUGGAGGCAUCUGG [hsa-miR-4654] | 6.3 | -29.4 | 38.8
36 | UAGGCAGUGUCAUUAGCUGAUUG [hsa-miR-34b-5p] | 35.6 | -23.8 | 17.6
37 | UCUGGGCAACAAAGUGAGACCU [hsa-miR-1285-3p] | 20.6 | 2.8 | 28.8
38 | CAGUGCAAUAGUAUUGUCAAAGC [hsa-miR-301a-3p] | -17.2 | 43.8 | 126
39 | GGGAGUGCAGGGCAGGGUUUC [hsa-miR-504-3p] | 14.7 | -22.6 | 36
40 | UGUGGGUGGGAAGGACUGGAUU [hsa-miR-6748-5p] | 30.1 | -25.6 | 22.6

Row | Sequence | one-nucleolus phenotype percent effect (MCF10A [1]) [%] | 5+ nucleoli phenotype percent effect (MCF10A [2]) [%] | percent viability (MCF10A [3]) [%]
41 | UUGGAAUAGGGGAUAUCUCAGC [hsa-miR-6505-5p] | 29.1 | -46.6 | 36.9
42 | CUGGGCUCGGGACGCGCGGCU [hsa-miR-4674] | 18.5 | -33.5 | 31.3
43 | GGGGGGGCAGGAGGGGCUCAGGG [hsa-miR-328-5p] | -28.4 | 33.9 | 129
44 | UGAUAUGUUUGAUAUAUUAGGU [hsa-miR-190a] | -13.2 | 47.6 | 116
45 | UCGGAUCCGUCUGAGCUUGGCU [hsa-miR-127-3p] | 14.4 | -26.8 | 41.5
46 | GCUCAUCCCCAUCUCCUUUCAG [hsa-miR-6870-3p] | -31.1 | 36.6 | 115
47 | AGAGGAUACCCUUUGUAUGUU [hsa-miR-1185-5p] | 2.36 | 5.5 | 34.2
48 | GACAGAGUGCCACUUACUGAA [hsa-miR-4797-5p] | 41.8 | -25.1 | 23.7
49 | AUGCAGGCCUGUGUACAGCACU [hsa-miR-6811-5p] | 57 | -31.3 | 19.1
50 | CUGGGGGACGCGUGAGCGCGAGC [hsa-miR-4665-5p] | 18.8 | 9.32 | 31.2
51 | AGGGCCAGAGGAGCCUGGAGUGG [hsa-miR-4726-5p] | 5.63 | 18.8 | 50.1
52 | UGGCCCUGACUGAAGACCAGCAGU [hsa-miR-1291] | 5.12 | 23.5 | 51
53 | AAGCCUGCCCGGCUCCUCGGG [hsa-miR-596] | -4 | -11.4 | 74.8
54 | GUGUGACCACCGUUCCUGCAG [hsa-miR-6808-3p] | 28.3 | -25.4 | 27.3
55 | ACAGAGGACAGUGGAGUGUGAGC [hsa-miR-6847-5p] | -1.08 | -1.34 | 51.1
56 | AAGGUAUUGUUCAGACUUAUGA [hsa-miR-4678] | 5.33 | -18 | 38.9
57 | ACAGCACUGCCUGGUCAGA [hsa-miR-383-3p] | -8.43 | -19 | 54.9
58 | GGGAGCCAGGAAGUAUUGAUGU [hsa-miR-505-5p] | 10.3 | 1.85 | 68.7
59 | CCACCUCCCCUGCAAACGUCCA [hsa-miR-1306-5p] | -25.8 | 33 | 35
